These results are taken from US20260207759A1, “COMPOSITION OF CD40-BINDING MOLECULE AND PHARMACEUTICAL USE THEREOF” (SUZHOU SUNCADIA BIOPHARMACEUTICALS CO., LTD., priority 2022, published 2026).

Assay [1] addresses human CD40 on the cell surface (Raji cells, HEK-Blue CD40L cells, primary human B cells and DCs) (human) (UniProt P25942). Kind of assay: cell-based or functional assay.
Assay [2] has the same target. Kind of assay: flow cytometry (FACS) binding to Raji cells.
Assay [3] shares this target. Kind of assay: flow cytometry (FACS) binding to Raji cells. This is another data set of the same source. On the technique in general: A flow cytometer gives signals particle by particle.
Assay [4] deals with his-tagged human CD40 recombinant protein (h-CD40-his, Acrobiosystems Cat. #CD0-H5228) (human) (UniProt P25942). Kind of assay: SPR (Biacore), antibody captured on anti-human Fc chip, His-tagged CD40 as analyte, 1:1 model.

Read-outs that look alike come from different tables or passages of the source.

Chain of human CD40 on the cell surface (Raji cells, HEK-Blue CD40L cells, primary human B cells and DCs) (human) (P25942 21-277): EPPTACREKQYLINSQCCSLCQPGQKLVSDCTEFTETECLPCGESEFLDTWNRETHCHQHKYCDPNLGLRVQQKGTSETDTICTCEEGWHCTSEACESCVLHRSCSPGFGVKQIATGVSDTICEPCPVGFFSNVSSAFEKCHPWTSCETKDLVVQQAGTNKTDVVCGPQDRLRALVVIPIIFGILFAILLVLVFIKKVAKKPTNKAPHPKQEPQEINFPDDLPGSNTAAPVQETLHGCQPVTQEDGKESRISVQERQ
Chain of his-tagged human CD40 recombinant protein (h-CD40-his, Acrobiosystems Cat. #CD0-H5228) (human) (P25942 21-193 limits assumed): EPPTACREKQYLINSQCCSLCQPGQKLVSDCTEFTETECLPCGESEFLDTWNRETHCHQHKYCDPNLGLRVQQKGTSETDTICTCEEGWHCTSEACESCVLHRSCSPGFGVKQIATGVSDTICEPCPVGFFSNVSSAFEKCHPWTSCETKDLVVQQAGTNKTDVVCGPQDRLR

Regarding “CFZ533 (iscalimab), anti-CD40 antagonistic antibody, positive control”, in assay [1], the B cell activation assay, CD19+CD69+ %, IC50 turned out to be 140 pM; the B cell activation assay, CD19+CD69+ %, maximum inhibition rate was 95%; the B cell activation assay, CD19+CD69+ MFI, IC50 stood at 70 pM; the B cell activation assay, CD19+CD69+ MFI, maximum inhibition rate was determined as 110%. Moreover, in assay [1], the IC50 for the inhibition of CD40 reporter gene cell activity (Experiment 1) came to 360 pM; the IC50 for the inhibition of CD40 reporter gene cell activity (Experiment 2) was 350 pM; the IC50 in DC cell activation assay system, CD80 MFI was determined as 1190 pM; the IC50 in DC cell activation assay system, CD86 MFI is 1930 pM. In addition, in assay [1], the IC50 in DC cell activation assay system, IL-12/23 p40 is 680 pM; the IC50 in DC cell activation assay system, TNFα stood at 350 pM; the Reporter gene cell activity IC50 (SEAP, HEK-Blue CD40L cells stimulated with CD40L) is 272 pM. In assay [2], this substance had an EC50 of 2410 pM. The EC50 in assay [3] was 1010 pM. For the same substance, in assay [4], the dissociation constant Kd was 205 pM, the koff is 0.000141 s⁻¹ and the on-rate (kon) was 688000 M⁻¹ s⁻¹.

Usually EC50 stands for the concentration needed to bring the measured effect to its halfway point. Low readings indicate a more potent agent, high ones a less potent agent. The term Kd denotes the free concentration of one partner at which half of the binding sites on the other are occupied at equilibrium, for simple one-to-one binding. A word on the koff: it is the first-order rate constant of dissociation. What is called kon is the rate constant with which the complex forms.
